Measurements published in patent US20240261423A1 (Pfizer, published 2024).

Biological target: EDB+FN (fibronectin containing the extra-domain B) on WI38-VA13 cells (human, UniProt P02751 32-2477)
Test: cell-based or functional assay

EDB+FN (fibronectin containing the extra-domain B) on WI38-VA13 cells, sequence (P02751 32-2477 limits assumed, form in doubt): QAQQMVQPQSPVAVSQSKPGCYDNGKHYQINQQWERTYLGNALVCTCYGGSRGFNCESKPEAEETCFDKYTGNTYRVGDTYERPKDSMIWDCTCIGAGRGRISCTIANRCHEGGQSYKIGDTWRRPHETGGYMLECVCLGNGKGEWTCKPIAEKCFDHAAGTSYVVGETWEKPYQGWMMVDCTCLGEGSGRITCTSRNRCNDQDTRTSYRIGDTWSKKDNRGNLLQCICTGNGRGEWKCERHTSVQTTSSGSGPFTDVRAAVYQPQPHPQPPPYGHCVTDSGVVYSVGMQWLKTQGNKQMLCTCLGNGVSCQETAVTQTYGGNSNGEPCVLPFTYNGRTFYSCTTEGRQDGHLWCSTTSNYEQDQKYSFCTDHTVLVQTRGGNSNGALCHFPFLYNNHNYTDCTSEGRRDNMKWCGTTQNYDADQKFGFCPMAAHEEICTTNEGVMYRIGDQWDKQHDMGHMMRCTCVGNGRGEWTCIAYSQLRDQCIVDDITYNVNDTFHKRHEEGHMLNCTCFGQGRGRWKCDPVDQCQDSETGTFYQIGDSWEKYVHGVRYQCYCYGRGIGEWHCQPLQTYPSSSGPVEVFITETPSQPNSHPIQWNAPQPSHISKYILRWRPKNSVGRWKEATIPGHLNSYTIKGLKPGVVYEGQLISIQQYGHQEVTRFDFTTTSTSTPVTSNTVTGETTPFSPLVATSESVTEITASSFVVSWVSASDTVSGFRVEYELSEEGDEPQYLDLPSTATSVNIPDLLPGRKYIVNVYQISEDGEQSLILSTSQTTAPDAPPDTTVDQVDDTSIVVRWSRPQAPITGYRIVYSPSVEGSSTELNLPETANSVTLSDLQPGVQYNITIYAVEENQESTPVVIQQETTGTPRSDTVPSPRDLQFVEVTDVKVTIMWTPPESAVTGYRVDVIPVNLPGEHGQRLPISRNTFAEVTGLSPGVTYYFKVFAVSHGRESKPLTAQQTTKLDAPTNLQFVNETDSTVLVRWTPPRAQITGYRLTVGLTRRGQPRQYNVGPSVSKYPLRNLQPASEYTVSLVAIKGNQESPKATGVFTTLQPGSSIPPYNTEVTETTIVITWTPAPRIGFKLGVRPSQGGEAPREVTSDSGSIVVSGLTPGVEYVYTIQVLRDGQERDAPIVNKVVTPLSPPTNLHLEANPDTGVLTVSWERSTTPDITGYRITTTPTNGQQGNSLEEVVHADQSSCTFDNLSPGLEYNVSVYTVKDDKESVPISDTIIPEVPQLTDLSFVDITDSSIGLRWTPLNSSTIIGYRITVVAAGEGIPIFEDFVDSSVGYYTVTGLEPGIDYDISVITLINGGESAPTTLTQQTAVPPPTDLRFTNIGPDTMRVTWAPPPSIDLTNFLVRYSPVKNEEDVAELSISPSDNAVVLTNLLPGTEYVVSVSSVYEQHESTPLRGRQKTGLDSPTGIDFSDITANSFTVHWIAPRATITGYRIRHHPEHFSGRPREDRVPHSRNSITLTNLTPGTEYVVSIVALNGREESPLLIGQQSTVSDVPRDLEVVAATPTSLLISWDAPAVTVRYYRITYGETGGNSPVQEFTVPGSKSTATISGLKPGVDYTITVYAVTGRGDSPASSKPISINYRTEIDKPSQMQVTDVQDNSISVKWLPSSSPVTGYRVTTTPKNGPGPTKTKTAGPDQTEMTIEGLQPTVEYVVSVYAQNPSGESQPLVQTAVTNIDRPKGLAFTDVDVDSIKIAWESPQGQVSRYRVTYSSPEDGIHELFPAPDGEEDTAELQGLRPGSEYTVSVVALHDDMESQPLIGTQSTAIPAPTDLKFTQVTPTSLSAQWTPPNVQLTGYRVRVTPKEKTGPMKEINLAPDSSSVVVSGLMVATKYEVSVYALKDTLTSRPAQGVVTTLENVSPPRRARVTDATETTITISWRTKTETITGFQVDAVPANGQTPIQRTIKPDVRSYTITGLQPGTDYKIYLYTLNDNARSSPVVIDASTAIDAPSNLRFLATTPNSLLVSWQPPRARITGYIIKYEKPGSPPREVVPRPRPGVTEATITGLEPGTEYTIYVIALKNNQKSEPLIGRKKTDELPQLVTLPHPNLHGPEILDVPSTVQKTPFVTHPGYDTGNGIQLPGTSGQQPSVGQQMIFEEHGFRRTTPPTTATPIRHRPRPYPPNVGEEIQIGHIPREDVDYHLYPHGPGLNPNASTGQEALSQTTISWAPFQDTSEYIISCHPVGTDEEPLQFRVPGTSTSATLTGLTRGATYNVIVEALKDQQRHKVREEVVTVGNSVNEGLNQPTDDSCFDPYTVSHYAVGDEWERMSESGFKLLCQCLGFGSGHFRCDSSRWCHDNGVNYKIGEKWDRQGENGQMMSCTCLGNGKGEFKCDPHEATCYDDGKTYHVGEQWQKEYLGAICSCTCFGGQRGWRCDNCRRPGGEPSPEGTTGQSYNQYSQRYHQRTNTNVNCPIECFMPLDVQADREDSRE

Row | Binder | Avg IC50, in vitro cytotoxicity on WI38-VA13 cells (Cell Titer Glo, 4 days)
1 | EDB-(K94R)-vc-0101 (antibody, human IgG1, kappa, vc-0101 linker-payload on cysteine residues (conventional conjugation, Method A); vc-0101 linker-payload on cysteine residues (conventional conjugation, Method A); average DAR 3.7 (LC/MS)) heavy: not shown light: EIVLTQSPGTLSLSPGERATLSCRASQSVSSSFLAWYQQKPGQAPRLLIYYASSRATGIPDRFSGSGSGTDFTLTISRLEPEDFAVYYCQQTGRIPPTFGQGTKVEIKRTVAAPSVFIFPPSDEQLKSGTASVVCLLNNFYPREAKVQWKVDNALQSGNSQESVTEQDSKDSTYSLSSTLTLSKADYEKHKVYACEVTHQGLSSPVTKSFNRGEC | 184 ng/ml of antibody
2 | EDB-(κK183C-K94R-K290C)-vc-0101 (antibody, human IgG1, kappa, vc-0101 linker-payload on engineered Cys 183 (κK183C, Kabat), Method B; vc-0101 linker-payload on engineered Cys 290 (K290C, EU index), Method B; average DAR 3.8 (LC/MS)) heavy: not shown light: EIVLTQSPGTLSLSPGERATLSCRASQSVSSSFLAWYQQKPGQAPRLLIYYASSRATGIPDRFSGSGSGTDFTLTISRLEPEDFAVYYCQQTGRIPPTFGQGTKVEIKRTVAAPSVFIFPPSDEQLKSGTASVVCLLNNFYPREAKVQWKVDNALQSGNSQESVTEQDSKDSTYSLSSTLTLSCADYEKHKVYACEVTHQGLSSPVTKSFNRGEC | 216 ng/ml of antibody
